Publication PMC10530651, “Mechanisms of Regulation of the CHRDL1 Gene by the TWIST2 and ADD1/SREBP1c Transcription Factors”
Changes are numbered by the printed parent chain.

How the values were obtained:
TWIST1 [1] = target: T1, TWIST1 (Homo sapiens, UniProt Q15672 1-202); test: EMSA; EMSA: 20 mM HEPES pH 7.9, 60 mM KCl, 1 mM MgCl2, 0.5 mM DTT, 10% glycerol, 10 µL with 1-3 µL TnT lysate; competitor at least 50x molar excess; 6% native gel, 0.5X TBE, 4 °C; binding temperature not stated; conditions: protein: ivt; tags: Myc; chain copies: 2; label: 32P as probe; blunt
ADD1/SREBP1c [2] = target: T2, ADD1/SREBP1c (rat, UniProt P56720-1 1-403); test: EMSA; competition; EMSA: 20 mM HEPES pH 7.9, 60 mM KCl, 1 mM MgCl2, 0.5 mM DTT, 10% glycerol, 10 µL with 1-3 µL TnT lysate; competitor at least 50x molar excess; 6% native gel, 0.5X TBE, 4 °C; binding temperature not stated; conditions: protein: ivt; tags: C-terminal Myc/His; chain copies: 2; label: 32P as probe; blunt
T2 sequence: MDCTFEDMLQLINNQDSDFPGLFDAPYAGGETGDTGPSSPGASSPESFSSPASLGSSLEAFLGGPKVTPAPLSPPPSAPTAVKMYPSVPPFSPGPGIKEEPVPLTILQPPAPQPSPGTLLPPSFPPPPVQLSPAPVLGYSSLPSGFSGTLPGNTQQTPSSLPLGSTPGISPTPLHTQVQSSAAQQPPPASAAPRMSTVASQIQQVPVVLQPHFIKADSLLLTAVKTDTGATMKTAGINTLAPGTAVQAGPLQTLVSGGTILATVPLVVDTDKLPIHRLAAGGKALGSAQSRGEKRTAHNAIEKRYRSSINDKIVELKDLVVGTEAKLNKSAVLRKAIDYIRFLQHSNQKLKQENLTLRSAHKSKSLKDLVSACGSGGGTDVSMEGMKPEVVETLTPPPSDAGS

TWIST2 [3] = target: T3, TWIST2 (Homo sapiens, UniProt Q8WVJ9 1-160); test: as above; conditions: protein: ivt; tags: N-terminal Myc; chain copies: 2; label: 32P as probe; blunt
T3 sequence: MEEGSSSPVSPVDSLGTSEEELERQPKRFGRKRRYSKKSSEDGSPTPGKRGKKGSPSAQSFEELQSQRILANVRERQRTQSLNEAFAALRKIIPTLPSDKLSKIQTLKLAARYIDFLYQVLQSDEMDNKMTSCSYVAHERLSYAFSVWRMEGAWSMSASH

TWIST1 [4] = target: T1, TWIST1; test: competition; vs labeled probe #5; EMSA: 20 mM HEPES pH 7.9, 60 mM KCl, 1 mM MgCl2, 0.5 mM DTT, 10% glycerol, 10 µL with 1-3 µL TnT lysate; competitor at least 50x molar excess; 6% native gel, 0.5X TBE, 4 °C; binding temperature not stated; conditions: protein: ivt; tags: Myc; chain copies: 2; blunt
TWIST2 [5] = target: T3, TWIST2; test: as above; conditions: protein: ivt; tags: N-terminal Myc; chain copies: 2; blunt
ADD1/SREBP1c [6] = target: T2, ADD1/SREBP1c; test: EMSA; EMSA: 20 mM HEPES pH 7.9, 60 mM KCl, 1 mM MgCl2, 0.5 mM DTT, 10% glycerol, 10 µL with 1-3 µL TnT lysate; competitor at least 50x molar excess; 6% native gel, 0.5X TBE, 4 °C; binding temperature not stated; conditions: protein: ivt; tags: C-terminal Myc/His; chain copies: 2; label: 32P as probe; blunt
TWIST2 [7] = target: T3, TWIST2; test: as above; conditions: protein: ivt; tags: N-terminal Myc; chain copies: 2; label: 32P as probe; blunt
ADD1/SREBP1c [8] = target: T2, ADD1/SREBP1c; test: competition; vs labeled CH2700EA; EMSA: 20 mM HEPES pH 7.9, 60 mM KCl, 1 mM MgCl2, 0.5 mM DTT, 10% glycerol, 10 µL with 1-3 µL TnT lysate; competitor at least 50x molar excess; 6% native gel, 0.5X TBE, 4 °C; binding temperature not stated; conditions: protein: ivt; tags: C-terminal Myc/His; chain copies: 2; blunt
TWIST2 [9] = target: T3, TWIST2; test: as above; conditions: protein: ivt; tags: N-terminal Myc; chain copies: 2; blunt

B1: CH2600TWI (dsDNA)
DNA 1: TATATACACAGGCAAATGAGTGCATATAAA
DNA 2: TTTATATGCACTCATTTGCCTGTGTATATA
- binding result (TWIST1 [1]): no binding
- binding result (ADD1/SREBP1c [2]): no binding
- binding result (TWIST2 [3]): no binding

B2: SP1 oligo (dsDNA)
DNA 1: ATTCGATCGGGGCGGGGCGAGC
DNA 2: GCTCGCCCCGCCCCGATCGAAT
- binding result (TWIST1 [4]): no binding
- binding result (TWIST2 [5]): no binding

B3: CH2700EA (dsDNA)
DNA 1: TGGTGGTGGTCACATGAATATACACATGCGATAAAATT
DNA 2: AATTTTATCGCATGTGTATATTCATGTGACCACCACCA
- binding result (ADD1/SREBP1c [6]): binds
- binding result (TWIST2 [7]): binds

B4: CH2700EWAM (dsDNA)
DNA 1: B3 DNA 1 with A24G, T27C
DNA 2: B3 DNA 2 with A12G, T15C
- binding result (ADD1/SREBP1c [8]): binds

B5: CH2700EMAW (dsDNA)
DNA 1: B3 DNA 1 with A12G, T15C
DNA 2: B3 DNA 2 with A24G, T27C
- binding result (ADD1/SREBP1c [8]): binds
- binding result (TWIST2 [9]): binds
